Here are results for three sequences from PMC7022936.

The data set relates to DcGliZ full-length (Dichotomomyces cejpii FS110). Description: SPR. Conditions: SPR: HBS-EP (10 mM HEPES pH 7.4, 150 mM NaCl, 0.005% P20), 22 C; EMSA: Beyotime chemiluminescent kit, 5 uL of 1 uM probe + 2 uL protein (~1 mg/mL in Methods …).

pKd: −log10 of the molar value.

Turning to “TTACTTCTTGGTCTACTCCGTATTGTGAATCGAAATGAGATAGAAGTATAGTTCTACTGTACTGGTTTCTATCTGCTTAAAATAAATACAATTGTGCCTTCTATACAGATCAGTATGTAGAATGAACTGATAGACCTCCAGGAGGTTCTTCCTCCGAGCCTGCAACGCCCAAGAGGAGAACTGTGCATACGCCAGGACAGATTTTCGGCCTCCGAAAAGGACTGAGGATAGTATCTGCCATGTTTATATATAACTGAGGGAATAGACCAGGTAGATAACAGCAAAATCAACTAAACATCATC (double strand) [pN (gliN promoter)]”, the negative logarithm of the Kd (pKd) is 6.98.

“TAGTCTATCACTGAACAGTTGAATGAATTTGTTTCAAGACAGCTAAAGCTCCATTCTAGCCGTACGTACTGGTAGTTCTCCGCATAGAAACATATATCTCTCTGCTTGGTCAAAGTCAGGTATCGCCGACAAGTCTTAATATCTGCAGAGTATTCGGTGACCGAAATAGGGTCGGAATATAAGCCATATATATCACTGTTCTGGAAATCAAGAAAATATAACAGTTGAATACTCACTTTTCTAACATTCCAACAATCAGTTGAGCTCGATCACA (double strand) [pM (gliM promoter)]”: the pKd is 6.79.

Regarding “GTTTCTATGTCTATATCGGAGGAGTGATCAACGGCGTCCGAAAATTCGGCCCGCGGCTGTCTTAGGGCTGGCCTGCAGGTGTAGGGTTCATTATGAAAGACTGGTAGTATTATGCTGCTATTTAGTCAAAAGCAGAAGAACAGTTTGTCTTTAGACCTTGAATAGATATCTGTCAAGACAAGAGCCAAGAAAGTCCCATCACCATGGCAGACATGACCGAACGACCTTCTGATCTCGTTGTGGACAGGCTGGTTCTCTTCG (double strand) [pG (gliG promoter)]”, the pKd was 6.80.
